# Assay: yeast display, Sf9 membrane polyspecificity reagent, FACS + sequencing; frameworks hold sequencing errors
# Summary of the method: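 Galactose induction of a Saccharomyces cerevisiae BJ5465 synthetic nanobody display library ran 36–48 hours. The cells were then stained for 1 hour at 4 °C with 10% biotinylated, detergent-solubilized Sf9 membrane reagent, pulled down on streptavidin microbeads and FACS-sorted into low and high (top ~1%) gates on expression and reagent-binding fluorescence. Labels for polyreactivity follow the gate of origin.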
row,Sequence,polyreactivity (PSR sort gate)
1,QVQLVESGGGLVQAGGSLRLSCAASGSIFYINDMGWYRQAPGKERELVASINSSGDSTYYADSVKGRFTISRDNAKNTVYLQMNSLKPEDTAVYYCAADDGYPIQEYDYWGQGTQVTVSS,low polyreactivity
2,QVQLVESGGGLVQAGGSLRLSCAASGSIFYIYAMGWYRQAPGKERELVAGINGGGASTYYADSVKGRFTISRDNAKNTVYLQMNSLKPEDTAVYYCAADIRYLGEYWGQGTQVTVSS,low polyreactivity
3,QVQLVESGGGLVQAGGSLRLSCAASGSIFYKNAMGWYRQAPGKERELVAAISSSGGSTRYADSVKGRFTISRDNSKNTVSLQMNSLKPEDTAVYYCAASGSRTSRGYWGQGTQVTVSS,high polyreactivity
4,QVQLVESGGGLVQAGGSLRLSCAASGSIFYKYAMGWYRQAPGKERELVATIRASGGRTYYADSVKGRFTISRDNAKNTVYLQMNSLKPEDTAVYYCAKYTTRGVYRSWPKDMDYWGQGTQVTVSS,low polyreactivity
5,QVQLVESGGGLVQAGGSLRLSCAASGSIFYLYAMGWYRQAPGKERDVVAAITWRGGITNYADSVKGRFTISRYNAKNTVYLQMNSLKPEVTAVYYCAADPYRFLATELYYWGQGTQVTVSS,low polyreactivity
6,QVQLVESGGGLVQAGGSLRLSCAASGSIFYLYAMGWYRQAPGKERELVATMSSSGGSTYYADSVKGRFTISRDNAKNTVYLQMISLKPEDTAVYYCNADYIYYGTTYEYWGQGTQVTVSS,low polyreactivity
7,QVQLVESGGGLVQAGGSLRLSCAASGSIFYLYAMGWYRQEPGKERELVAAINFRGGSTYADSVKGRFTISRDNAKNTVYLQMNSLKPEDTAVYYCAAKAAYRMNYWGQGTQVTVSS,high polyreactivity
8,QVQLVESGGGLVQAGGSLRLSCAASGSIFYLYDKGWYRQAPGKERELVADITWSGGSTYYADSVKGRFTISRDNAKNTVYLQMYSLKPEDTAVYYCAAAYGPFYYELYDYWGLGTQVTVSS,low polyreactivity
9,QVQLVESGGGLVQAGGSLRLSCAASGSIFYLYTMGWNRQAPGKERELVAAITAISGSTYYADSVKGRFTISRDNAKNTVYLQINSLKPEDTAVYYCAAKYYRHRWQLYNYWGQGTQVTVSS,high polyreactivity
10,QVQLVESGGGLVQAGGSLRLSCAASGSIFYPNAMGWYRQAPGKERELVAANSIGGGRTYYADSVKGRFTISRDNAKNTVYLQMNSLKPEDTAVYYCAASFYSYTSTWAYRFYYWGQGTQVTVSS,high polyreactivity
11,QVQLVESGGGLVQAGGSLRLSCAASGSIFYPNVMGWYRQAPGKERELVAAIRTSGGSTYYADSVKGRFTISRDNAKNTVYLQMNSLKPEDTAVYYCAADYIYVKYEYWGQGTQVTVSS,high polyreactivity
12,QVQLVESGGGLVQAGGSLRLSCAASGSIFYPYAMGRYRQAPGKERELVASIRSRRGTTFYADSVKGRFTISRDNAKNTVYLQMNSLKPEDTAVYYCAVDNWSSSYYWWVDKLGGSDYWGQGTQVTVSS,low polyreactivity
13,QVQLVESGGGLVQAGGSLRLSCAASGSIFYPYAMGWSSKAPRKERELVARISSAGGTYYADSVKGRFTISRDNAKNTVYLQMNSLKPEDTAVYYCAAQARYRYYYWGQGTQVTVSS,high polyreactivity
14,QVQLVESGGGLVQAGGSLRLSCAASGSIFYPYAMGWYRQAPGKERELVAAISSGGTTYYADSVKGRFTISRDNAKNTVYLQMNSLKPEDTAVYYCGAGFYLRAVWMDYWGQGTQVTVSS,high polyreactivity
15,QVQLVESGGGLVQAGGSLRLSCAASGSIFYPYAMGWYRQAPGKERELVAAISSSGGSTYYADSVKGRFTISRDTAKNTVYLQMNSLKPEDTAVYYCAARGKKHAYDYWGQGTQVTVSS,low polyreactivity
16,QVQLVESGGGLVQAGGSLRLSCAASGSIFYPYAMGWYRQAPGKERELVASISSGGSTYYADSVKGRFTISRDNGKNTVYLQMISLKTDDTAVYYCIAVFSTFTGEYYWGKGTQVTVSS,high polyreactivity
17,QVQLVESGGGLVQAGGSLRLSCAASGSIFYPYAMGWYSQAPGKERELVAGISRSGASTYYADSVKGRFTISRDNAKNTVYLQMNSLKPEDTAVYYCAADDWTRNYWGQGTQVTVSS,low polyreactivity
18,QVQLVESGGGLVQAGGSLRLSCAASGSIFYPYVMGWYRQAPGKERELVATITWSGDDTNYADSVKGRFTISRDNAKNTVYLQMNSLKPEDTAVYYCAVGYGDYLYYDYDYWGQGTQVTVSS,low polyreactivity
19,QVQLVESGGGLVQAGGSLRLSCAASGSIFYQNAMGWYIQAPGKERELVAAITSDGSTYYADSVKGRFTISRDNAKNTVYLQMNSLKPEDTAVYYCAAEYYGHRYDYWGQGTQVTVSS,low polyreactivity
20,QVQLVESGGGLVQAGGSLRLSCAASGSIFYQNAMGWYRQAPGKEREFVAAITWIGGSTYYADSVKGRFTISRDNAKNSVYLQMNILKPEDTAVYYCAADSVDNIYYGFDYWGQGTQVTVSS,high polyreactivity
21,QVQLVESGGGLVQAGGSLRLSCAASGSIFYQNAMGWYRQAPGKERELVAAISSAGSTYYADSVKGRFTISRDNAKNTVYLQMNSLKPEDTAVYYCARRSSGELGYHIYDYWGQGTQVTVSS,low polyreactivity

row,Sequence,polyreactivity (PSR sort gate)
1,QVQLVESGGGLVQAGGSLRLSCAASGSIFYQNAMGWYRQAPGKERELVAAITWRSGSTYYADSVKGRFTISRDNAKNTVDLQMNSLKPEDTAVYYCAADLLISPEFYYWGQGTQVTVSS,high polyreactivity
2,QVQLVESGGGLVQAGGSLRLSCAASGSIFYQNMGWYRQAPRKERELVATINRGSSTHYADSVKGRFTISRDNAKNTVYLQMNSLKPEDTAVYYCAKRSSRYRLYYWGQGTQVTVSS,high polyreactivity
3,QVQLVESGGGLVQAGGSLRLSCAASGSIFYQYAMGWYRQAPGKERELVARIRGSTGTTYYADSVKGRFTISRDNAKNTVYLQMNSLKPEDTAVYYCNAARYQGRSRFDYWGQGTQVTVSS,high polyreactivity
4,QVQLVESGGGLVQAGGSLRLSCAASGSIFYRNAMGWSRQAPGKEREFVAAITLRGGSTYYADSVKGRFTISRDYAKNTVYLQMNSLKPEDTAVYYCNAGVGLTYVHDGDYWGQGTQVTVSS,low polyreactivity
5,QVQLVESGGGLVQAGGSLRLSCAASGSIFYRNAMGWYRQAPGKEREFVAAITLRGGSTYYADSVKGRFTISRDKAKNTVYLQMNSLKPEDTAVYYCNAGVGLTYVHDGDYWGQGTQVTVSS,low polyreactivity
6,QVQLVESGGGLVQAGGSLRLSCAASGSIFYRNAMGWYRQAPGKERELVAAISSDGSTNYADSVKGRFTISRDNAKNTVYLQMNSLKPEDTAVSYCAAPWTQILDYWGQGTQVTVSS,low polyreactivity
7,QVQLVESGGGLVQAGGSLRLSCAASGSIFYRNAMGWYRQAPGKERELVAAITWSGVNTYYADSVKGRFTISRDNAKNTVYLQMNSLKPEDTAVYYCAVPSRYWLNRGFDYWGQGSQVTVSS,low polyreactivity
8,QVQLVESGGGLVQAGGSLRLSCAASGSIFYRNTMGWYRQAPGKERELVAAITRGTRTYYADSGKGRFTISRDNAKNTVYLQMNSLKPEDTAVYYCNARFVGRTGGSFDYWGQGTQVTVSS,high polyreactivity
9,QVQLVESGGGLVQAGGSLRLSCAASGSIFYRNTMGWYRQAPGKERELVAAITTSGGSTYYADSVKGRFTISRDNAKNTVYLQMNSLKPEDTAVYYCAARTWERWYRYYYWGQGTQVTVSS,high polyreactivity
10,QVQLVESGGGLVQAGGSLRLSCAASGSIFYRNTMGWYRQAPGKERELVASINTGTGTYYADSVKGRFTISRDNAKNTVYLQMNSLKPEDTAVYYCNKVSYVKYGYWGQGTQVTVSS,high polyreactivity
11,QVQLVESGGGLVQAGGSLRLSCAASGSIFYRNVMGWYRQAPGKERELVAAISSGTSTYYADSVKGRFTISRDNAKHTVYFPMNSLKPEDPAVYDCAADGLHYYGQRWYYGVDYWVQGTQVTVSS,low polyreactivity
12,QVQLVESGGGLVQAGGSLRLSCAASGSIFYRNVMGWYRQAPGKERELVAAITWSGGSTYYADSVKGRFTISRDNAKNTVYLQMNSLKPEDTAVYYCAAASKGTYRGKVSGYYYWGQGTQVTVSS,high polyreactivity
13,QVQLVESGGGLVQAGGSLRLSCAASGSIFYRYAMGWYRPAPGKERELVAAISSTGSTYYADSVKGRFTISRDNAKNTVYLQMNSLKPEDTAVYYCAARQGYRSYRRYDYWGQGTQVTVSS,high polyreactivity
14,QVQLVESGGGLVQAGGSLRLSCAASGSIFYRYAMGWYRQAPGKERELVAAISSGGSTYYADSVKGRFTISRDNAKNTVYLQMNSLKPEDTAVYYCAAKHYYYSPYVRYDPPPGYYWGQGTQVTVSS,high polyreactivity
15,QVQLVESGGGLVQAGGSLRLSCAASGSIFYRYAMGWYRQAPGKERELVAAISWGGGRTYYADSVKGRFTISRDNAKNTVYLLMKSLKPEDTAVYYCNAVQSYYTVHRLDYWGQGTQVTVSS,high polyreactivity
16,QVQLVESGGGLVQAGGSLRLSCAASGSIFYRYAMGWYRQAPGKERELVAAISYNGGRTYYADSVKGRFTISRDNAKNTVYLQMNSLKPEDTAVYYCNAAGRDDAYDYWGQGTQVTVSS,high polyreactivity
17,QVQLVESGGGLVQAGGSLRLSCAASGSIFYRYAMGWYRQAPGKERELVATISLSGGSTYADSVKGRFTISRDNAKNTVYLQMNSLKPEDTAVYYCAAGGQYYIIRYDYWGQGTQVTVSS,low polyreactivity
18,QVQLVESGGGLVQAGGSLRLSCAASGSIFYRYDMGWYRQAPGKERELVADISWSSGRTYYADSVKGRFTISRDNAKNTVYLQMNSLKPEDTAVYYCATDDFWNVKFYAYYPEFDYWGQGSQVTVSS,low polyreactivity
19,QVQLVESGGGLVQAGGSLRLSCAASGSIFYRYTMGWYRQAPGKERELVAGITFGAGTYYADSVKGRFTISRDNAKNTVYLQMNSLKPEDTAVYYCNAKHLPRHRDYWGQGTQVTVSS,low polyreactivity
20,QVQLVESGGGLVQAGGSLRLSCAASGSIFYSNAMGWYRQAPGKERELVAAISGSGGTTYYADSVKGRFTISRDNAKNTVYLQMNSLKPEETAVYYCAAKPSVRVRLSDYWGQGTQVTVSS,high polyreactivity
